Residue numbers refer to the chain shown, from its start. Values belong to the binder of their own block, whether it stands above or below them.
Molecular target: T1, KP1.2 peptide of the D2E2 loop of the Nav1.7 channel (human, not fully specified)
T1 construct: also called human NAV1.7 peptide
T1 peptide: H-VELFLADVEGC-NH2
Experiment: DELFIA: KP1.2 peptide on streptavidin plate, purified antibody undiluted, Eu-labelled anti-human IgG, time-resolved fluorescence at 615 nm
Method: Four mice were immunised substantially as detailed in Table 6. The immunisations of Boost 6 each used 3 μg of KP1.2-KLH and 3 μg KP5.1-KLH, adjuvanted with IFA, CpG and Alum as set out in Table 6. A seventh booster immunisation was added, which consisted of 2 μg of KP1.2-KLH and 2 μg KP5.1-KLH, adjuvanted with IFA, CpG and Alum as set out in Table 6. Antibodies were isolated from these mice. 17 antibodies were identified using B-cell cloning technique as described above with labelled KP1.2 peptide (SEQ ID No:10). These 17 antibodies were further tested for binding to human NAV1.7 peptide using a DELFIA assay.
Streptavidin Even Coat 96 well plates (R&D Systems) were coated with 50 μL of 4 μg/ml KP1.2 peptide (SEQ ID No:10, synthesised by Mimotopes) diluted in 1×PBS (Sigma) for 1 hr at room temperature (RT). Plates were then washed 3× with 1×PBS+0.1% tween (200 μL/well). Plates were blocked with 200 μL PBS+1% BSA (Sigma) for 1 hr at RT. Plates were then washed again 3× with 1×PBS+0.1% tween (Sigma) (200 μL/well). Purified antibodies were then added non-diluted to washed plate and incubated for 1 hr at RT (50 μL/well). Plates were then washed 3× with 1×PBS+0.1% tween (200 μL/well). 50 μL/well of Dissociation-Enhanced Lanthanide Fluorescent Immunoassay (DELFIA) Europium-labelled Anti-Human IgG antibody (Perkin Elmer) diluted 1:500 in DELFIA assay buffer (Perkin Elmer) for 1 hr at RT. Plates were then washed 3× with DELFIA wash buffer (Perkin Elmer) (200 μL/well). 50 μL/well of DELFIA Enhancement Solution (Perkin Elmer, warmed to RT before use) was added to each well and incubated for 5 min at RT on shaker (Heidolph Titramax). […] Values were plotted using Prism (Graph Pad Prism).

binding result: binds
B1: 25A01 (antibody, V domains shown)
VH: QVQLVQSEAEVKKPGASVKVSCKASGYIFTTFGLSWVRQAPGQGLEWMGRITTNNGNTIYERRFQGRVTMTIDTSTTTAYMEMRSLTSDDTAVYYCARDGAPQDHWGQGTLVTVSS
VL: DIQMTQSPSSLSVSVGDRVIITCRASQDIRNSLAWFQQKPGKAPKSLIFAASSLQSGVPSKFRGSGFGTDFTLTITSLQPEDFATYYCQQYSSYPLTFGGGTKVEIK
notes: Detected with anti-human IgG

binding result: binds
B2: 25F08 (antibody, V domains shown)
VH: QVQLVQSGPEVKKPGASVKVSCQASGYTFTTYGINWVRQAPGQGLEWMGRISAYNGNTNYAQKFQGRVTMTTDTSTRTAYMEMSNLISDDTAVYYCARDGAPQDHWGQGTLITVSS
VL: B1 VL with V19I, I20T, R30S, R63S, F67S, T72N, L73F, T76S, S92N, Y94F
notes: Detected with anti-human IgG

B3: 27A03 (antibody, V domains shown)
VH: EVQLVESGGGLVKPGGSLRLSCAASGFTFSTYSMNWVRQAPGKGLEWVSSISRSSSYIYYADSVKGRFTISRDNAKNSLSLQMNSLRAEDTAVYYCARGAAAGTDYWGQGTLVTVSS
VL: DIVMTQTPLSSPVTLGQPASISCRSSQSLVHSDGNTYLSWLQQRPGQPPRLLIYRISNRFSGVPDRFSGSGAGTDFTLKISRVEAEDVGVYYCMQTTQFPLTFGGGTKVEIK
binding result: no binding (tested: undiluted, concentration not given)

B4: 35A10 (antibody, V domains shown)
VH: B3 VH
VL: DIVMTQSPLSLPVTLGQPASISCRSSQSLIYSDGNTYLNWFQQRPGQSPRRLIYKVSNRDSGVPDRFSGSGSGTDFTLKISRVEAEDVGVYYCLQGTLWPITFGQGTRLEIK
binding result: no binding (tested: undiluted, concentration not given)

binding result: binds
B5: 25C01 (antibody, V domains shown)
VH: EVHLVESGGGLVQPGGSLRLSCSASRFTFSTSAMTWVRQAPGKGLEWVSVISASGTTTYYGDSVKGRFTISRDNSKNTLHLQMNSLRAEDTAVYYCAKGGLAVPGPNYWGQGTLVTVSS
VL: DVVMTQSPLSLPVTLGQPASISCRSSQSLVFSDGNTYLTWFQQRPGQSPRRLIYKVSDRDSGVPDRFSGSGSGTDFTLQISRVEAEDVGLYYCMQGSHWPLTFGGGTKVEIK
notes: Detected with anti-human IgG

B6: 30G01 (antibody, V domains shown)
VH: QVQLQESGPGLVKPSGTLSLTCAVSGGSISSSNWWSWVRQPPGKGLEWIGEIYHSGNTNYNPSLKSRVTISVDKSKNQFSLKLSSVTAADTAVYYCVRGYYYDSGTSWGYYYGMDVWGQGTTVTVSS
VL: DIQMTQSPSSLSASVGDRVTITCRASQGISNYLAWFQQRPGRAPKSLIYAASSLQRGVPSKFSGSGSGTDFTLTISSLQPEDFATYYCQQYNSYPITFGQGTRLEIK
binding result: no binding (tested: undiluted, concentration not given)

binding result: binds
B7: 22G09 (antibody, V domains shown)
VH: QVQLVQSGAEVRKPGASVKVSCKASGYTFTDYAIHWVRQAPGQRLEWMGWIIVGNGKTRYSQKFQGRVTITWETSATTAYMDLSSLRSEDTAVYYCARGFTMVRGAPYYDGMDVWGQGTTVTVSS
VL: DIVMTQSPLSLPVTPGEPASISCRSSQSLLYTTGYNYLDWYLQKPGLSPQLLIYLGSYRASGVPDRFTGSGSGTDFTLKISRVEAEDVGVYYCMQALQAPTFGGGTKLEIK
notes: Detected with anti-human IgG

B8: 32A07 (antibody, V domains shown)
VH: B7 VH with A9P, K13N, K19R, I34L, S61A, T77S, Y80F, M112L, V123I
VL: B4 VL
binding result: no binding (tested: undiluted, concentration not given)

binding result: binds
B9: 32B04 (antibody, V domains shown)
VH: B7 VH with L4F, V68L
VL: B7 VL
notes: Detected with anti-human IgG; also called 32604

binding result: binds
B10: 28C11 (antibody, V domains shown)
VH: B7 VH with S61A, T77S, M112L
VL: B7 VL with Y31F, T32S, Y58N, T68S, A99T, L108V
notes: Detected with anti-human IgG

binding result: binds
B11: 35A06 (antibody, V domains shown)
VH: B7 VH with I34L, S61A, T77S, Y80F, M112L
VL: B7 VL with T32S, Y58N, T68S, A99T, L108V
notes: Detected with anti-human IgG

binding result: binds
B12: 28B08 (antibody, V domains shown)
VH: B7 VH with I34L, S61A, T77S, Y80F, M81V, S84N, M112L
VL: B7 VL with P12S, T32S, Y58N, T68S, V90F, L108V
notes: Detected with anti-human IgG; also called 28608

binding result: binds
B13: 35E11 (antibody, V domains shown)
VH: B7 VH with S61A, F64L, T77S, S84T, M112L
VL: B7 VL with T32S, Q50H, Y58N, T68S, A99T, L108V

B14: 32E01 (antibody, V domains shown)
VH: B7 VH with T77S
VL: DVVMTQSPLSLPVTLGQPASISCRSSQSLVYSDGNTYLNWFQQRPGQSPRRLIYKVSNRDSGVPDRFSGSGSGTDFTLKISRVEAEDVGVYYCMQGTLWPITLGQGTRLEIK
binding result: no binding (tested: undiluted, concentration not given)

binding result: binds
B15: 32D04 (antibody, V domains shown)
VH: B7 VH with A9P, K13N, K19R, I34L, S61A, T77S, Y80F, M112L, V123I
VL: B7 VL with T14S, T32S, Y58I, T68S, K79S, V90I, A99T, L108V
notes: Detected with anti-human IgG
